Response data for 6 substances are collected here from paper PMC5715124.

For this assay, the target named is mCherry-LacR-CSB-ATPase. The assay can be described thus: immunofluorescence co-localisation at the lac operator array (mCherry-LacR tethering) in U2OS-265 cells. As to conditions: 250 Myc-expressing cells scored per experiment; three independent experiments; parent: est. 28; read off a plot.

Turning to Myc-CSB-N S10D, the response is 32 % of cells.

As to Myc-CSB-N S158D, the response was 28 % of cells.

Consider Myc-CSB-N S158A, for which the response is 18 % of cells.

In the case of Myc-CSB-N S10A, the response is 21 % of cells.

As for Myc-CSB-N S10A; S158A, the response was 17 % of cells.

As to Myc-CSB-N S10D; S158D, the response is 30 % of cells.
